Laboratory results as given in patent publication US20260098102A1 (NATIONAL UNIVERSITY CORPORATION KOBE UNIVERSITY, published 2026).
Positions count from the first letter of the chain named.

B1: human chimeric anti-SIRPA antibody cD13 (antibody, human IgG4 S228P, kappa, F234A L235A, V domains shown)
VH: EVQLVESGGGLVQPGRSLKLSCLASGFTFSDYGMIWVRQAPGKGLEWVASISSSSSYIYYADTVKGRFTISRENAKNTLFLHMTSLRSEDTALYYCARRYYGFNYPFDYWGQGVMVTVSS
VL: DTVLTQSPALAVSLGQRVTISCGASKSVRTYMHWYQQKSGQQPKLLIYSASNLEAGVPSRFSGSGSGTDFTLTIDPVEADDIANYYCQQSNEPPYTFGAGTKLELKR
notes: Human IgG4proFALA heavy chain, human kappa light chain; also called cD13 (IgG4pf); human chimeric antibody D13
B2: humanized anti-SIRPA antibody hD13_H1L3 (antibody, human IgG4 S228P, kappa, F234A L235A, V domains shown)
VH: QVQLVESGGGVVQPGRSLRLSCAASGFTFSDYGMIWVRQAPGKGLEWVASISSSSSYIYYADSVKGRFTISRDNSKNRLYLQMNSLRAEDTAVYYCARRYYGFNYPFDYWGQGTMVTVSS
VL: DTQLTQSPSSLSASVGQRVTITCGASKSVRTYMHWYQQKPGKQPKLLIYSASNLEAGVPSRFSGSGSGTDFTLTISSLQPEDFATYYCQQSNEPPYTFGQGTKLEIKR
notes: hH1 heavy chain (IgG4proFALA) and hL3 kappa light chain; also called hD13_HIL3; HIL3 antibody
B3: humanized anti-SIRPA antibody hD13_H1L4 (antibody, human IgG4 S228P, kappa, F234A L235A, V domains shown)
VH: B2 VH
VL: DTVLTQSPDSLAVSLGQRATINCGASKSVRTYMHWYQQKPGQQPKLLIYSASNLEAGVPSRFSGSGSGTDFTLTISSLQAEDVAVYYCQQSNEPPYTFGQGTKVEIKR
notes: hH1 heavy chain (IgG4proFALA) and hL4 kappa light chain; also called hD13_HIL4; hD13_HIL4h
B4: humanized anti-SIRPA antibody hD13_H2L2 (antibody, human IgG4 S228P, kappa, F234A L235A, V domains shown)
VH: B2 VH with Q1E, R78T
VL: B2 VL with D1A, T2I, Q43A
notes: hH2 heavy chain (IgG4proFALA) and hL2 kappa light chain; also called H2L2 antibody
B5: humanized anti-SIRPA antibody hD13_H2L3 (antibody, human IgG4 S228P, kappa, F234A L235A, V domains shown)
VH: B2 VH with Q1E, R78T
VL: B2 VL
notes: hH2 heavy chain (IgG4proFALA) and hL3 kappa light chain; also called H2L3 antibody

Legend:
[1] = target: T1, human SIRPA_V5 (human, UniProt P78324 31-504); assay: cell-based ELISA on 293α cells expressing FLAG-tagged SIRPA_V5; Abs 490 normalized to FLAG tag [i]
T1 construct: FLAG-tagged (pFLAG V5-DEST), on 293α cells; also called human SIRPA Variant 5
T1 sequence (P78324 other isoform, or with tags, fused parts or gaps limits assumed): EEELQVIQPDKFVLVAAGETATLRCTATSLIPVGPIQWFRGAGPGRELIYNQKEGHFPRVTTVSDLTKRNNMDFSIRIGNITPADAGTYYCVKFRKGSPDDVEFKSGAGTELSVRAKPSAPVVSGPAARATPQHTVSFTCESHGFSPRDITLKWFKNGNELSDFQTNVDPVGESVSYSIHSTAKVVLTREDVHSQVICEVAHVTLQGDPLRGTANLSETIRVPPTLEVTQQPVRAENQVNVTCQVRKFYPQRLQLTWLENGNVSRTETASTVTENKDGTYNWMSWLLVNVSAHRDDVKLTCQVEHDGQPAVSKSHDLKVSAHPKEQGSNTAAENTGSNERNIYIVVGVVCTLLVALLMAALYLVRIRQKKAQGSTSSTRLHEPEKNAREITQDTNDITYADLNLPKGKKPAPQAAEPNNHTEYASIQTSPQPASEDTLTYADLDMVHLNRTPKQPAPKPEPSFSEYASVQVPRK
Protocol: (§1) The 293a cells, described in Example 1)-6, were prepared at 5× 10⁵ cells/mL in a 10% FBS-containing DMEM medium. pFLAG V5-DEST-SIRPA_V1-V10, pFLAG V5-DEST-monkey SIRPA, pFLAG V5-DEST-mouse SIRPA, or pFLAG V5-DEST was introduced into the cells using Lipofectamine LTX (Invitrogen), and 100 μL each was aliquoted to a 96-well plate (Corning Incorporated) and cultured overnight in a 10% FBS-containing DMEM medium at 37° C. under a 5% CO₂ condition. The obtained introduced cells were used for cell-based ELISA in a state that they adhered. After the culture supernatant was removed, 50 μL per well of hD13_HIL3, hD13_HIL4h, hD13_H2L2, hD13_H2L3, or cD13 prepared in Examples 6 and 7 or a control antibody was added to each of various SIRPA genes-introduced cells at a final concentration of 0 to 10,000 ng/ml, and the mixture was allowed to stand at 4° C. for one hour. Thereafter, binding to human SIRPA was evaluated in the same manner as in Example 5-1.

[2] = target: T2, human SIRPA_V6 (human, UniProt P78324 31-504); assay: cell-based ELISA on 293α cells expressing FLAG-tagged SIRPA_V6; Abs 490 normalized to FLAG tag [ii]
T2 construct: FLAG-tagged (pFLAG V5-DEST), on 293α cells; also called human SIRPA Variant 6
T2 sequence (P78324 31-504 S105P limits assumed): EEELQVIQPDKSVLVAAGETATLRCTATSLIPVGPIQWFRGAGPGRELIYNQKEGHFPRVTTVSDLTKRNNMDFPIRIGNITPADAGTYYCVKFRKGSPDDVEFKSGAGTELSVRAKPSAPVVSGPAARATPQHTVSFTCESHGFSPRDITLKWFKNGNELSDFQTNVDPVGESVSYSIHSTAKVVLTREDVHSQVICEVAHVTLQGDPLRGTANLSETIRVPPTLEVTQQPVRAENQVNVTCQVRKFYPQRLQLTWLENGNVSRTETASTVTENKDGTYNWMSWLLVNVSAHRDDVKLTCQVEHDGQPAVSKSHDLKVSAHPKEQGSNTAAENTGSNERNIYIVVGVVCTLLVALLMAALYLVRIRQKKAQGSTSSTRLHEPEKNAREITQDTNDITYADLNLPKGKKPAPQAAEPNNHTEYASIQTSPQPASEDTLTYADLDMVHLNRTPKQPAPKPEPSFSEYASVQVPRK
Protocol: as §1

[3] = target: T3, human SIRPA_V1 protein (human, UniProt P78324 31-504); assay: cell-based ELISA on 293α cells expressing FLAG-tagged SIRPA_V1; Abs 490 normalized to FLAG tag
T3 construct: Expressed on 293α cells from pcDNA3.2 V5-DEST or pFLAG V5-DEST (FLAG-tagged) vectors; also called human SIRPA Variant 1; hSIRPA V1
T3 sequence (P78324 31-504 limits assumed): as the sequence (P78324 31-504 S105P limits assumed) above, with P75S counted along it
Protocol: (§2) The 293α cells [described in Example 1)-6] were prepared in a 10% FBS-containing DMEM medium to 5×10⁵ cells/mL. pFLAG V5-DEST-SIRPA_V1, pFLAG V5-DEST-SIRPA_V2, or pFLAG V5-DEST was introduced into the cells using Lipofectamine LTX (Invitrogen), followed by addition of 100 μL per well to a 96-well plate (Corning Incorporated), and cells were cultured overnight in the 10% FBS-containing DMEM medium at 37° C. under a 5% CO₂ condition. The obtained introduced cells were used for cell-based ELISA in a state that they adhered to each other. After the culture supernatant was removed, 50 μL per well of the cD13 (IgG2 and IgG4pf), cF44 (IgG1, IgG2, IgG4p, and IgG4pf), and cF63 (IgG2 and IgG4pf) antibodies prepared in Examples 3 and 4 were added to each of pFLAG V5-DEST-SIRPA_V1, pFLAG V5-DEST-SIRPA_V2, or pFLAG V5-DEST-introduced cells at final concentrations of 0 to 10,000 ng/mL, and the mixture was allowed to stand at 4° C. for one hour. Further, 50 μL per well of anti-FLAG M2 antibody (SIGMA) diluted with 5% FBS-containing PBS to a final concentration of 10,000 ng/mL was added to a well for detecting expression of each SIRPA construct, and the mixture was allowed to stand at 4° C. for one hour. The cells in the well were washed once with 5% FBS-containing PBS, followed by addition of Peroxidase AffiniPure F(ab′)₂ Fragment Goat Anti-Human IgG, Fcγ Fragment Specific (Jackson ImmunoResearch) diluted 1000-fold with 5% FBS-containing PBS, and the mixture was allowed to stand at 4° C. for one hour. The cells in the well were washed five times with 5% FBS-containing PBS, followed by addition of 100 μL per well of an OPD coloration solution [o-phenylenediamine dihydrochloride (Wako Pure Chemical Industries, Ltd.) and H₂O₂ were dissolved in an OPD solution (0.05 M trisodium citrate, 0.1 M disodium hydrogen phosphate dodecahydrate, pH 4.5) at 0.4 mg/mL and 0.6% (v/v), respectively]. A coloration reaction was performed with stirring occasionally, 100 μL per well of 1 M HCl was added to terminate the coloration reaction, and then absorbance at 490 nm was measured with a plate reader ARVO (PerkinElmer Inc.). Binding of the human chimeric anti-human SIRPA antibodies to each construct was standardized by expression of the FLAG tag.

[4] = target: T4, human SIRPA_V2 protein (human, UniProt P78324 31-504); assay: cell-based ELISA on 293α cells expressing FLAG-tagged SIRPA_V2; Abs 490 normalized to FLAG tag
T4 construct: Expressed on 293α cells from pcDNA3.2 V5-DEST or pFLAG V5-DEST (FLAG-tagged) vectors; also called human SIRPA Variant 2; ECD variant (full-length, amino acids 1 to 504)
T4 sequence (P78324 other isoform, or with tags, fused parts or gaps limits assumed): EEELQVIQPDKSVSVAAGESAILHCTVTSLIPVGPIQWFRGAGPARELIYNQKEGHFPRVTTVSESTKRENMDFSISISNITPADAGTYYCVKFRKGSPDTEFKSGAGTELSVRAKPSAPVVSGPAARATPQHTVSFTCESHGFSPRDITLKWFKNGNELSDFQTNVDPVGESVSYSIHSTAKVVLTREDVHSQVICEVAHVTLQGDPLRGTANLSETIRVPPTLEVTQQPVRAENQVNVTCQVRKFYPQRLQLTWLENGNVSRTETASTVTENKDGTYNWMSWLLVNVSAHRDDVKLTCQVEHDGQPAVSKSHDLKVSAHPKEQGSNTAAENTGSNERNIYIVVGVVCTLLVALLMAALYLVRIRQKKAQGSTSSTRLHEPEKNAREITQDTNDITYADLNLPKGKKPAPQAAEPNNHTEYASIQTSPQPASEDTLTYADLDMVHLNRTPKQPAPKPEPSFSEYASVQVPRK
Protocol: as §2

[5] = target: T3, human SIRPA_V1 protein; assay: blocking cell-based ELISA: peroxidase-labeled CD47-Fc (1 µg/mL) on 293α cells expressing SIRPA_V1
Protocol: After the culture supernatant of the human SIRPA_V1 or V2 expression vector-introduced 293 cells prepared in Example 9)-1 was removed, 50 μL per well of various anti-SIRPA antibodies or various control Human IgG diluted with 5% FBS-containing PBS to a final concentration of 0 to 10,000 ng/ml was added to each of pcDNA3.2 V5-DEST-SIRPA_V1 or V2-introduced 293α cells, immediately followed by addition of 50 µL per well of peroxidase-labeled CD47-Fc prepared with 5% FBS-containing PBS at 1 μg/mL, and the mixture was allowed to stand at 4° C. for one hour. Thereafter, the SIRPA-CD47 binding inhibitory activity was evaluated in the same manner as in 1)-6-3.

Binder	EC50 (read off the curve) [1]	EC50 (read off the curve) [2]	EC50 (read off the curve) [3]	EC50 (read off the curve) [4]	IC50 [5]
B1	~0.04 µg/mL	~0.04 µg/mL	~0.08 µg/mL	~0.05 µg/mL	–
B2	~0.04 µg/mL	~0.04 µg/mL	–	–	1.58 µg/mL
B3	~0.04 µg/mL	~0.04 µg/mL	–	–	–
B4	~0.04 µg/mL	~0.04 µg/mL	–	–	–
B5	~0.04 µg/mL	~0.04 µg/mL	–	–	–
